In paper PMC12489471, “A multi-dentate, cooperative interaction between endo- and exo-ribonucleases within the bacterial RNA degradosome” (Nucleic Acids Research, 2025):

B1: E. coli PNPase (enzyme, UniProt P05055 1-711, looked up)
chain: MLNPIVRKFQYGQHTVTLETGMMARQATAAVMVSMDDTAVFVTVVGQKKAKPGQDFFPLTVNYQERTYAAGRIPGSFFRREGRPSEGETLIARLIDRPIRPLFPEGFVNEVQVIATVVSVNPQVNPDIVAMIGASAALSLSGIPFNGPIGAARVGYINDQYVLNPTQDELKESKLDLVVAGTEAAVLMVESEAQLLSEDQMLGAVVFGHEQQQVVIQNINELVKEAGKPRWDWQPEPVNEALNARVAALAEARLSDAYRITDKQERYAQVDVIKSETIATLLAEDETLDENELGEILHAIEKNVVRSRVLAGEPRIDGREKDMIRGLDVRTGVLPRTHGSALFTRGETQALVTATLGTARDAQVLDELMGERTDTFLFHYNFPPYSVGETGMVGSPKRREIGHGRLAKRGVLAVMPDMDKFPYTVRVVSEITESNGSSSMASVCGASLALMDAGVPIKAAVAGIAMGLVKEGDNYVVLSDILGDEDHLGDMDFKVAGSRDGISALQMDIKIEGITKEIMQVALNQAKGARLHILGVMEQAINAPRGDISEFAPRIHTIKINPDKIKDVIGKGGSVIRALTEETGTTIEIEDDGTVKIAATDGEKAKHAIRRIEEITAEIEVGRVYTGKVTRIVDFGAFVAIGGGKEGLVHISQIADKRVEKVTDYLQMGQEVPVKVLEVDRQGRIRLSIKEATEQSQPAAAPEAPAAEQGE
notes: polynucleotide phosphorylase (PNPase), E. coli; also called polynucleotide phosphorylase; full-length PNPase; source: E. coli BL21(DE3), purified (ammonium sulfate, Q, butyl-Sepharose, SEC)
B2: E. coli PNPase core, lacking S1 and KH domains (domain or fragment, UniProt P05055 1-552, looked up)
chain: MLNPIVRKFQYGQHTVTLETGMMARQATAAVMVSMDDTAVFVTVVGQKKAKPGQDFFPLTVNYQERTYAAGRIPGSFFRREGRPSEGETLIARLIDRPIRPLFPEGFVNEVQVIATVVSVNPQVNPDIVAMIGASAALSLSGIPFNGPIGAARVGYINDQYVLNPTQDELKESKLDLVVAGTEAAVLMVESEAQLLSEDQMLGAVVFGHEQQQVVIQNINELVKEAGKPRWDWQPEPVNEALNARVAALAEARLSDAYRITDKQERYAQVDVIKSETIATLLAEDETLDENELGEILHAIEKNVVRSRVLAGEPRIDGREKDMIRGLDVRTGVLPRTHGSALFTRGETQALVTATLGTARDAQVLDELMGERTDTFLFHYNFPPYSVGETGMVGSPKRREIGHGRLAKRGVLAVMPDMDKFPYTVRVVSEITESNGSSSMASVCGASLALMDAGVPIKAAVAGIAMGLVKEGDNYVVLSDILGDEDHLGDMDFKVAGSRDGISALQMDIKIEGITKEIMQVALNQAKGARLHILGVMEQAINAPRGDISEFA
notes: polynucleotide phosphorylase (PNPase), E. coli, core aa 1-552 by the methods (1-550 in the results), without the KH and S1 domains; The results and a legend give 1-550 for the core, the methods 1-552; source: E. coli Evo21(DE3), purified (Ni-NTA, intein cleavage, butyl, Q, SEC); not shown: Mycobacterium xenopi GyrA intein, C-terminal, cleaved; His8, C-terminal, cleaved

Target: the molecule itself
Assay: SEC-MALS; Superdex 200 10/300 Increase, 100 µl at ~1 mg/ml, 25°C; buffer A (50 mM Tris pH 7.5, 100 mM NaCl, 100 mM KCl, 0.01% w/v b-DDM, 1 mM TCEP) or B (A without b-DDM) as Table S2 tells for each sample; the 1:1 ratio is one RNase E segment to one PNPase trimer (expected mass = trimer plus one segment)

Protein | stoichiometry N
B1 | 3
B2 | 3
